Reference: patent publication US6770448B2, “Fluorescent amyloid Aβ peptides and uses thereof” (The Regents of the University of California, priority 1997, dated 2004)

What was measured:
[1] = Denaturation (unfolding) of Aβ in DMSO monitored by tyrosine or AEDANS fluorescence; format: physicochemical
Protocol: FIG. 3 is a graph illustrating the unfolding of Aβ measured by tyrosine fluorescence and 1,5-IAEDANS fluorescence. […] The protein concentration was 5-10 μM of Aβ.
For refolding experiments, samples were incubated in 100% DMSO for 1 hour at room temperature, and refolding was initiated by ten or fifty times dilution of the solvent in Tris buffered solution. The concentration of peptide ranged between 3 and 10 μM.
Absorption measurements were measured with a Perkin Elmer Lambda 3B UV-Vis spectrophotometer. Fluorescence spectra (excitation band pass 4 nm; emission band pass 8 nm) were measured either on an Aminco SLM 48000 or a SPEX Fluorolog F112A spectrofluorometer. Intrinsic tyrosine fluorescence was measured from 285 to 400 nm upon excitation at 275 nm. […] The lifetime measurements for FM were acquired using the 488 nm line of argon ion laser for excitation using a multiharmonic frequency-domain spectrofluorometer (Aminco 48000S).

[2] = Gel filtration chromatography (Superdex 75 HR 10/30), oligomeric structure; format: physicochemical; conditions: Superdex 75, Buffer A
Protocol: The peptides were dissolved in DMSO for 30 minutes and then ten fold diluted in buffer A at a final protein concentration of 5-10 μM. A 200 μl aliquot was loaded onto a Superdex 75HR 10/30 column and eluted at a rate of 0.4 ml/min.
Gel filtration analysis was performed with a Pharmacia Superdex 75 HR 10/30 column using a Waters 490 multiple wavelength UV absorbance detector and Hewlett Packard 3250 fluorescence detector. Data were collected with a Waters Maxima chromatography data system. The running buffer used was 50 mM Tris, 0.1 M NaCl, pH 7.4 (Buffer A) in the presence of 10% or 2% DMSO. The column was calibrated with the following molecular weight standards: thyroglobulin, bovine serum albumin, ovalbumin, soybean trypsin inhibitor, ubiquitin, aprotinin, and insulin β-chain. The peptides were detected by UV absorbance at 280 nm and by fluorescence at 482 and 520 nm for IAEDANS and FM respectively.

Substance | unfolding curve compared with AβC25-AEDANS [1] | elution position on gel filtration [2]
AβC7FM: Aβ with cys in position 7 and labeled with FM | identical unfolding curves | –
14C-labeled Aβ 1-40: Aβ synthesized by incorporation of Fmoc-14C-Ala at position 2, 36 mCi/mmol | – | eluted at the position expected for a dimer
AβC4FM: Aβ with cys in position 4 and labeled with FM | identical unfolding curves | –
